assay: melting temperature; melt of duplexes; conditions: sodium 0.0675 M; strand 1 µM

| Substance | Tm [°C] |
| --- | --- |
| CGACGTGCACAATGTGCTG+CAGCACATTAAGCACGTCG ((((((((..(((((((((+)))))))))..)))))))) | 49 |
| CGACGTGCCTGATGTGCTG+CAGCACATGAGGCACGTCG ((((((((((.((((((((+)))))))).)))))))))) | 58.5 |
| CGACGTGCACAATGTGCTG+CAGCACATTATGCACGTCG (((((((((.(((((((((+))))))))).))))))))) | 52.8 |
| CGACGTGCGTTATGTGCTG+CAGCACATTGTGCACGTCG ((((((((...((((((((+))))))))...)))))))) | 47.2 |
| CGACGTGCGTAATGTGCTG+CAGCACATCAAGCACGTCG ((((((((.(.((((((((+)))))))).).)))))))) | 53.4 |
| CGACGTGCAGTATGTGCTG+CAGCACATACAGCACGTCG ((((((((.((((((((((+)))))))))).)))))))) | 57.4 |
| CGACGTGCTGGATGTGCTG+CAGCACATGGCGCACGTCG ((((((((...((((((((+))))))))...)))))))) | 49.6 |
| CGACGTGCGTGATGTGCTG+CAGCACATTTTGCACGTCG ((((((((...((((((((+))))))))...)))))))) | 50.7 |
| CGACGTGCTGAATGTGCTG+CAGCACATTCTGCACGTCG ((((((((.((((((((((+)))))))))).)))))))) | 59.2 |
| CGACGTGCGTTATGTGCTG+CAGCACATCGTGCACGTCG ((((((((...((((((((+))))))))...)))))))) | 44 |
| CGACGTGCGTTATGTGCTG+CAGCACATTTGGCACGTCG ((((((((...((((((((+))))))))...)))))))) | 49.4 |
| CGACGTGCCGAATGTGCTG+CAGCACATCGTGCACGTCG ((((((((...((((((((+))))))))...)))))))) | 51.9 |
| CGACGTGCCCCATGTGCTG+CAGCACATCTTGCACGTCG ((((((((...((((((((+))))))))...)))))))) | 46.7 |
| CGACGTGCTGCATGTGCTG+CAGCACATGACGCACGTCG ((((((((..(((((((((+)))))))))..)))))))) | 52.9 |
| CGACGTGCGCGATGTGCTG+CAGCACATCCTGCACGTCG ((((((((..(((((((((+)))))))))..)))))))) | 54.4 |
| CGACGTGCGACATGTGCTG+CAGCACATAAAGCACGTCG ((((((((...((((((((+))))))))...)))))))) | 55.2 |
| CGACGTGCATAATGTGCTG+CAGCACATAGTGCACGTCG (((((((((..((((((((+))))))))..))))))))) | 48.7 |
| CGACGTGCTCAATGTGCTG+CAGCACATGGGGCACGTCG ((((((((.(.((((((((+)))))))).).)))))))) | 55 |
| CGACGTGCCAAATGTGCTG+CAGCACATTGAGCACGTCG ((((((((..(((((((((+)))))))))..)))))))) | 53.9 |
| CGACGTGCAGGATGTGCTG+CAGCACATGCCGCACGTCG ((((((((.(.((((((((+)))))))).).)))))))) | 54 |
| CGACGTGCAAAATGTGCTG+CAGCACATTATGCACGTCG (((((((((.(((((((((+))))))))).))))))))) | 55.1 |
| CGACGTGCATTATGTGCTG+CAGCACATGGTGCACGTCG (((((((((..((((((((+))))))))..))))))))) | 51.8 |
| CGACGTGCAGGATGTGCTG+CAGCACATACAGCACGTCG ((((((((.(.((((((((+)))))))).).)))))))) | 55 |
| CGACGTGCCGCATGTGCTG+CAGCACATCGTGCACGTCG ((((((((...((((((((+))))))))...)))))))) | 50.5 |
| CGACGTGCATAATGTGCTG+CAGCACATGTCGCACGTCG ((((((((...((((((((+))))))))...)))))))) | 52.2 |
| CGACGTGCGAGATGTGCTG+CAGCACATAATGCACGTCG ((((((((...((((((((+))))))))...)))))))) | 52 |

| Substance | Tm [°C] |
| --- | --- |
| CGACGTGCACAATGTGCTG+CAGCACATAGGGCACGTCG ((((((((.(.((((((((+)))))))).).)))))))) | 53 |
| CGACGTGCGCCATGTGCTG+CAGCACATGTAGCACGTCG ((((((((..(((((((((+)))))))))..)))))))) | 55.1 |
| CGACGTGCGCAATGTGCTG+CAGCACATGATGCACGTCG ((((((((...((((((((+))))))))...)))))))) | 52.5 |
| CGACGTGCGAAATGTGCTG+CAGCACATAGAGCACGTCG ((((((((...((((((((+))))))))...)))))))) | 56.2 |
| CGACGTGCCCAATGTGCTG+CAGCACATGATGCACGTCG ((((((((...((((((((+))))))))...)))))))) | 49.7 |
| CGACGTGCCAAATGTGCTG+CAGCACATGGCGCACGTCG ((((((((...((((((((+))))))))...)))))))) | 51.2 |
| CGACGTGCGATATGTGCTG+CAGCACATAATGCACGTCG ((((((((..(((((((((+)))))))))..)))))))) | 54 |
| CGACGTGCGACATGTGCTG+CAGCACATGTCGCACGTCG (((((((((((((((((((+))))))))))))))))))) | 67.2 |
| CGACGTGCCCTATGTGCTG+CAGCACATAAAGCACGTCG ((((((((..(((((((((+)))))))))..)))))))) | 50 |
| CGACGTGCGCCATGTGCTG+CAGCACATATTGCACGTCG ((((((((...((((((((+))))))))...)))))))) | 47.3 |
| CGACGTGCGCAATGTGCTG+CAGCACATCCCGCACGTCG (((((((((..((((((((+))))))))..))))))))) | 52.5 |
| CGACGTGCTCCATGTGCTG+CAGCACATCGGGCACGTCG ((((((((.(.((((((((+)))))))).).)))))))) | 51.2 |
| CGACGTGCAGTATGTGCTG+CAGCACATGTAGCACGTCG ((((((((...((((((((+))))))))...)))))))) | 49.8 |
| CGACGTGCCGCATGTGCTG+CAGCACATAGAGCACGTCG ((((((((...((((((((+))))))))...)))))))) | 50.7 |
| CGACGTGCACTATGTGCTG+CAGCACATAGCGCACGTCG ((((((((.((((((((((+)))))))))).)))))))) | 54.8 |
| CGACGTGCCAGATGTGCTG+CAGCACATGTCGCACGTCG ((((((((.(.((((((((+)))))))).).)))))))) | 49.7 |
| CGACGTGCTTGATGTGCTG+CAGCACATACCGCACGTCG ((((((((...((((((((+))))))))...)))))))) | 48.4 |
| CGACGTGCGACATGTGCTG+CAGCACATCCAGCACGTCG ((((((((...((((((((+))))))))...)))))))) | 50.4 |
| CGACGTGCGGGATGTGCTG+CAGCACATTGAGCACGTCG ((((((((...((((((((+))))))))...)))))))) | 55.3 |
| CGACGTGCCTCATGTGCTG+CAGCACATGTTGCACGTCG ((((((((..(((((((((+)))))))))..)))))))) | 52.3 |
| CGACGTGCTGGATGTGCTG+CAGCACATCAGGCACGTCG ((((((((..(((((((((+)))))))))..)))))))) | 56.7 |
| CGACGTGCGTTATGTGCTG+CAGCACATTGCGCACGTCG (((((((((..((((((((+))))))))..))))))))) | 55.7 |
| CGACGTGCGACATGTGCTG+CAGCACATTCAGCACGTCG ((((((((...((((((((+))))))))...)))))))) | 52.4 |
| CGACGTGCGTCATGTGCTG+CAGCACATGATGCACGTCG ((((((((.((((((((((+)))))))))).)))))))) | 61.1 |
| CGACGTGCTCTATGTGCTG+CAGCACATGGCGCACGTCG ((((((((.(.((((((((+)))))))).).)))))))) | 51.6 |
| CGACGTGCCCCATGTGCTG+CAGCACATGATGCACGTCG ((((((((..(((((((((+)))))))))..)))))))) | 51.8 |

From the array DNA melting data of Ke et al.
